Results as given in patent US8624002B2, “Prostaglandin E2 binding proteins and uses thereof” (AbbVie, Inc., priority 2008, dated 2014).

How the values were obtained:
[1] = system: mouse collagen-induced arthritis; test: Collagen-induced arthritis; assay type: in vivo, DBA/J mice; conditions: 8 mg/kg, 2×/week, i.p.
Protocol: Type II bovine collagen (lyophilized) was obtained from the University of Utah (Salt Lake City, Utah). Male DBA/J mice (8-10-week-old, Jackson Laboratories, Bar Harbor, Me.) were immunized intradermally at the base of the tail with 100 μL of emulsion containing 100 μg of type II bovine collagen dissolved in 0.1 N of acetic acid and 100 μg of heat-inactivated Mycobacterium tuberculosis H37Ra (Complete Freund's Adjuvant, Difco, Laurence, Kans.). Twenty-one days after immunization with collagen, mice were boosted IP with 1 mg of Zymosan A (Sigma, St. Louis, Mo.). Following the boost, mice were monitored daily for arthritis. Each paw was scored by the following criteria: 0=normal; 1=swelling in one site, foot, or ankle; 2=swelling in foot and ankle; and 3=ankylosis. Scores were summed for each animal, and total average of all animals in each group was expressed as MAS. In addition to clinical scores, mice were also evaluated for paw-edema using Dyer spring calipers model #310-119. […]
Micro-computed tomography was performed on a Scanco μCT-40 unit (Scanco Medical AG) at 60 kVp at 160 μA. The hind paws (stored in 70% ethanol) were secured in imaging tubes and the tarsal bone volume was measured for a 1.8-mm section of the mouse ankle from the base of the tibia to the tarsal/metatarsal joint at a resolution of 18 μm. The raw micro-computed tomography image was then analyzed using the Scanco AG μCT Evaluation program.
For histopathology analysis, formalin-fixed paws were sectioned and stained with Gills 3 hematoxylin (Richard-Allan Scientific, Kalamazoo, Mich.) and eosin with phloxine (Newcomer Supply, Middleton, Mich.). Severity of disease was evaluated histologically using the following criteria: 0=normal; 1=minimal change; 2=mild change; 3=moderate change; and 4=severe change. Scores were summed for each animal, and the total was expressed as an average of all animals in each group.
The therapeutic effects of anti-PGE2 alone was evaluated in mouse (male DBA/1J) collagen-induced arthritis, a standard preclinical model for human rheumatoid arthritis. […]

^3H-PGE2 ELISA (binding) = test: ^3H-PGE2 ELISA (binding)
Protocol: Alternatively, prostaglandin binding was determined using a ^3H-PGE2 ELISA. Plates were coated at 50 μL/well with 5 μg/ml of goat anti-human IgG (Fc) (Thermo Scientific # 31170, Hudson, N.H.) or goat anti-mouse IgG (Fc) (Thermo Scientific # 31125, Hudson, N.H.) in PBS and incubated overnight at 4° C. The following day, plates were flicked and blotted dry. Plates were blocked with 200 μL/well of Superblock (Thermo Scientific # 37515, Hudson, N.H.) for 1 hour at room temperature. Plates were flicked and blotted dry. Monoclonal antibodies were diluted to 0.04 μg/ml in phosphate buffer solution with Tween 20 (PBST) (Abbott Bioresearch Center, Worcester, Mass.) and 10% Superblock and 50 μL of each antibody was added to each well of the pre-blocked ELISA plate at 2 ng/well and incubated for 1 hour at room temperature. Wells were washed 3 times with PBS+0.1% Tween-20. A serial 3-fold titration of ^3H-PGE2 (Perkin Elmer # NET-428, Waltham, Mass.) was prepared in PBST/10% Superblock. Fifty microliters of the ^3H-PGE2 solution was added to each well of the plate and incubated for 1 hour at room temperature. […] Plates were read using a TopCount reader (Perkin Elmer, Waltham, Mass.) with a 5 minute count delay. An EC50 number was determined using GraphPad Prism 5 (GraphPad Software, La Jolla, Calif.).

B1: 2B5-8.0: recombinant anti-PGE2 antibody from solved 2B5 sequence; VH SEQ ID NO 42, VL SEQ ID NO 43 (antibody, V domains shown)
VH: QVQLQQSGPELVRPGSSVKISCKASGYTFTKYWLGWVKQRPGHGLEWIGDIYPGYDYTHYNEKFKDKATLTVDTSSSTAYMQLSSLTSEDSAIYYCARSDGSSTYWGQGTLVTVSA
VL: DVLMTQTPLSLPVSLGDQASISCTSSQNIVHSNGNTYLEWYLQRPGQSPKLLIYKVSNRFSGVPDRFSGSGSGTVFTLKISRVEAEDLGVYYCFQVSHVPYTFGGGTKLEIKR
[1]
  Paw Swelling (AUC) (mm # days): 8.4 ± 1.3 mm # days
[1]; micro CT tarsal bone volume
  Bone Volume (mm^3): 1.6 ± 0.1 mm^3
[1]; treatment after disease onset
  MAS (AUC) (Score # days): 57.4 ± 6.7 Score # days
^3H-PGE2 ELISA (binding)
  EC50: 0.253 nM
